Assay results published in article doi:10.1101/2025.11.21.689678 (bioRxiv, 2025).

Biological target: MBP-MAGEA6 (human (cDNA from A549 cells), UniProt P43360 1-314)
Test: pull-down

MBP-MAGEA6, sequence (P43360 whole entry): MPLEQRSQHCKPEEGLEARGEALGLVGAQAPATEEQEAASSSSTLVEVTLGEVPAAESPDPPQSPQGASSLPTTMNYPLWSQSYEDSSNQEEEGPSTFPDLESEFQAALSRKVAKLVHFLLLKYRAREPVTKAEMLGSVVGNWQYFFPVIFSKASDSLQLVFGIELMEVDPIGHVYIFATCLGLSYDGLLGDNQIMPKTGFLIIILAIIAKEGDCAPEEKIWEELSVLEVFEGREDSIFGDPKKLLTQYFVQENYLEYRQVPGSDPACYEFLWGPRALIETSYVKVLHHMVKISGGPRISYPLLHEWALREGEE

B1: His-Flag-ALKBH2 (natural protein, human, UniProt Q6NS38 1-261, looked up)
chain: MDRFLVKGAQGGLLRKQEEQEPTGEEPAVLGGDKESTRKRPRREAPGNGGHSAGPSWRHIRAEGLDCSYTVLFGKAEADEIFQELEKEVEYFTGALARVQVFGKWHSVPRKQATYGDAGLTYTFSGLTLSPKPWIPVLERIRDHVSGVTGQTFNFVLINRYKDGCDHIGEHRDDERELAPGSPIASVSFGACRDFVFRHKDSRGKSPSRRVAVVRLPLAHGSLLMMNHPTNTHWYHSLPVRKKVLAPRVNLTFRKILLTKK
- binding result: binds
